Laboratory results from PMC5912500.

Biological target: T1, Wild-type (WT) moesin, P26038
T1 chain: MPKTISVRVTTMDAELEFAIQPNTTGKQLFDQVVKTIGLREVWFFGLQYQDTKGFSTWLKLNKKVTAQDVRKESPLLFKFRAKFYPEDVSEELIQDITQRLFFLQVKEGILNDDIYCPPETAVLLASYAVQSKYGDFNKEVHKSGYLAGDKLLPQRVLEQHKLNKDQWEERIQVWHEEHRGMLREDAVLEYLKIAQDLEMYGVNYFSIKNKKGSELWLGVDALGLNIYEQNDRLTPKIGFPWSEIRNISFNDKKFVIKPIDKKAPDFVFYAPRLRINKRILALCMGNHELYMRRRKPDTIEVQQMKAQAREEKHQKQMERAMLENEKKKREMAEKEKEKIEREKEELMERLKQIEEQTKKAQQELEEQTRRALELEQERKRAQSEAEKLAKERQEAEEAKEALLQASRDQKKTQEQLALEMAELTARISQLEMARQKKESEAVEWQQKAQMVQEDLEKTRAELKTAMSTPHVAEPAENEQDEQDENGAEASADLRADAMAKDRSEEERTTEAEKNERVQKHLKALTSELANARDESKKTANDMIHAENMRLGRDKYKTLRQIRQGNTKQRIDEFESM
Test: AUC
Settings: remark: other sources report otherwise

B1: Wild-type (WT) moesin, P26038 1-577 (natural protein)
chain: T1 chain
  percent of the protein as dimers: 29 to 31%
